The labels stand for the following.
B1: Twister Ribozyme (parent)
chain: AACACUGCCAAUGCCGGUCCCAAGCCCGGAUAAAAGUGGAGGGGGCGG

Drawing on the RNAGym collection of RNA variant scans (doi:10.7554/elife.80360), this text covers self-cleavage for 54 variants.

The variants in this data set derive from B1. In words: self-cleavage, relative activity (ratio to wild type); higher = more cleavage; co-transcriptional.
Turning to AACACUGACAAUGCCGGUCCCAAGCCCGGAUAAAAGUGGUGGGGGCGG, the self-cleavage was 0.2. The same measure for AACACUGCCAAUGCCGGUUCCAAGCCCGGGUAAAAGUGGAGGGGGCGG: 0.918; for AAGACUGCCAAUGCCGGUCACAAGCCCGGAUAAAAGUGGAGGGGGCGG: 0.0892; for AACACUGCCACUGCCGGUCCCAAGCCCGGAUAAUAGUGGAGGGGGCGG: 0.785. The result for AUCACUGCCAAUGCCGGUCCCAAGCCCGGAUAAAAGUGGAGAGGGCGG reads 0.164; that for AACACUGCCAAUGCAGGUCCCAAGCCCGGAUAAAAGUGGAUGGGGCGG, 0.177. In the case of AACACUGCCAAUGCCGGUCCCAAGCUCGCAUAAAAGUGGAGGGGGCGG, the self-cleavage came to 0.0821. Turning to AACACUGCCAAUGCCGGUUCCAAGCCCGGAUUAAAGUGGAGGGGGCGG, the self-cleavage is 1.02. The same measure for AACACUGCCAAUGCCGCUCCCACGCCCGGAUAAAAGUGGAGGGGGCGG: 0.092. The result for AACACUGCCAAUGCCGGUCACAAGCCCGGAUAGAAGUGGAGGGGGCGG reads 0.116. The same measure for AACACUGCCAAUGCCGGUCCCAAGCCCGGAUACCAGUGGAGGGGGCGG: 0.383; for AACACUGCCAAUGCCGGUCCCAACCCCGGAUAAAAGUGGAGGGUGCGG: 0.0952; for AACAAUGCCAAUGCCGGACCCAAGCCCGGAUAAAAGUGGAGGGGGCGG: 0.118.

Take AACACUGCCAAUGCCGGUCCCAAGUCCGGAUAAAAGUGGAGGGGGCGG: the self-cleavage stood at 0.881. With AACACUGCCACUGCCGGUCCCAAGCCCGGAUAAAGGUGGAGGGGGCGG, the self-cleavage is 0.574. AACAGUGCCAAUGCCGGUCCCAAGCCCGGAUAAACGUGGAGGGGGCGG: the self-cleavage was determined as 0.742. The result for AACACAGCCAAUGCCGGUCUCAAGCCCGGAUAAAAGUGGAGGGGGCGG reads 0.82. As for AACACUGCCAAUGCCGGUCCCAAACCCGGAUAAAAGUGGAAGGGGCGG, the self-cleavage came to 0.0508.

In the case of AACACUGCCAAUGCCGGACCCAAGUCCGGAUAAAAGUGGAGGGGGCGG, the self-cleavage was 0.0861. The result for AACACUGCCAAUGCCGGUCACAAGCCCGGAUAAAAGUGGAGGGGGCGC reads 0.169; that for AACACUCCCAAUGCCGGUCCCUAGCCCGGAUAAAAGUGGAGGGGGCGG, 0.0623. For the variant AACACUGCCAAUGCCGGUCCCCAACCCGGAUAAAAGUGGAGGGGGCGG, the self-cleavage stood at 0.131. The result for AACACUGCCAAUGCCGGUCCCACGCCCGGAUAAAAGUGGAGGGGACGG reads 0.118. The result for AACACUGCCAAUGCCGGUCCCAAGCCCGGAUAAACGUGUAGGGGGCGG reads 0.144. The result for AACACUGCCAAUGCCGGUCCCAAGCCCGAAUAAAAGUGGAGGGUGCGG reads 0.922; that for AACACUGCCAAUGCCGGUCCCAAGCCCGCAUAAAAGUGGAGCGGGCGG, 0.174; that for AACACUGCCAAUGCCGGACCCAAGCCCGGAUAAAAGUAGAGGGGGCGG, 0.229.

Turning to AACACUGCCAAUGCCGGUCCAAAGCCCGGAUAAAAGUCGAGGGGGCGG, the self-cleavage came out at 0.101. The result for AACACUGCCAAUGCCGGGCCCAAGGCCGGAUAAAAGUGGAGGGGGCGG reads 0.0608; that for AACACUGCCAAUGCCUGUCUCAAGCCCGGAUAAAAGUGGAGGGGGCGG, 0.797; that for AACAGUGCCAAUGCCGGUCCCAAACCCGGAUAAAAGUGGAGGGGGCGG, 0.0701. The result for AACACUGUCAAUGCCGGUCCCAAGCCCGGAUAAAAGUGGAGGAGGCGG reads 0.145; that for AACACUGCCAAUUCCGGUCCCAAGCCCGGAUAAAAUUGGAGGGGGCGG, 0.107.

On to AUCUCUGCCAAUGCCGGUCCCAAGCCCGGAUAAAAGUGGAGGGGGCGG, for which the self-cleavage worked out at 0.0802. The same measure for AACACUGCCAACGCCGGUCCCAAGCCCUGAUAAAAGUGGAGGGGGCGG: 0.88. The same measure for AACACUGCCAAUGCGGGUCCCAAACCCGGAUAAAAGUGGAGGGGGCGG: 0.0815; for AACACGGCCAAUUCCGGUCCCAAGCCCGGAUAAAAGUGGAGGGGGCGG: 0.0456.

Regarding AACACUGCCAAUGCCCGUCCCAAGCCCGGAUAAAAGUGGAGGGGGCUG, the self-cleavage was found to be 0.602.

Regarding AACACUGACAAUGCCGGUCCCAAGCCCGGAUAAAAGUGGAGGGGGCGA, the self-cleavage worked out at 0.215. The result for AACACUGCCAAUGCCGGUCACAAGCCCGGAUAAAAGCGGAGGGGGCGG reads 0.111; that for AACACUGCCAAUGCCGGUCACAAGCCCGGAUAAAAGGGGAGGGGGCGG, 0.109; that for AACACUGCCAAUGCCGGUCCCACGCACGGAUAAAAGUGGAGGGGGCGG, 0.199. For AACACUGCCAAUGCCGGUCGCAAGCCCGGAUAAAAGUGGAGGGGGCGU, the self-cleavage came to 0.12. In the case of AACACUGCUAAUCCCGGUCCCAAGCCCGGAUAAAAGUGGAGGGGGCGG, the self-cleavage came to 0.592. The same measure for AACACUGCCAAUGCCGGUCCCGUGCCCGGAUAAAAGUGGAGGGGGCGG: 0.0557; for AACUCUGCCAAUGCCGGUCCCAAGCCCGGAUAAACGUGGAGGGGGCGG: 0.129; for AACACUGCCAAUGCCGGUUCCAAGCCCGGAUAAAAGUGGAGUGGGCGG: 0.142. The same measure for CACACUGCCAAUGCCGGUCCCAUGCCCGGAUAAAAGUGGAGGGGGCGG: 0.184. The result for CACACUGCCAAUGCCUGUCCCAAGCCCGGAUAAAAGUGGAGGGGGCGG reads 0.189; that for AACACUGCCAAUGCCGGCCCCAAGCCCGGCUAAAAGUGGAGGGGGCGG, 0.0938; that for AACACUGCCAAUGCCGGUCCCAAGCCCGGAUAAAACUGGAGGGGCCGG, 0.201.

As to AACACUGCCAAUGCCGGUCCCAAGCCCGGAUAAUAGUGGAGGGGCCGG, the self-cleavage was found to be 0.295. The same measure for AGCACUGCCAAUGCAGGUCCCAAGCCCGGAUAAAAGUGGAGGGGGCGG: 0.136; for AACACUGCCAACGCCGGUCCCAAGCCCGGAUAAAAGUGGAGGCGGCGG: 0.145.
